The values below come from patent US20250163162A1 (SYNTHEKINE, published 2025).

What is called Kd is a measure of binding affinity in units of concentration. A high value points to lower affinity. What is called koff is the rate constant with which the complex falls apart. The low end stands for a long-lived complex, the high end for a short-lived complex. As usually defined, the kon is the second-order rate constant of association. Read a high kon as faster complex formation.

The target in experiment [1] is T1, hIL2Rg-Fc (SinoBiological cat#10555) (human, UniProt P31785 23-254, limits assumed).
T1 construct: Bought Fc fusion (SinoBiological cat#10555); P31785 is printed for hCD132 in the background; also called human IL2Rg-Fc; not shown: Fc of the bought fusion protein
T1 sequence (looked up): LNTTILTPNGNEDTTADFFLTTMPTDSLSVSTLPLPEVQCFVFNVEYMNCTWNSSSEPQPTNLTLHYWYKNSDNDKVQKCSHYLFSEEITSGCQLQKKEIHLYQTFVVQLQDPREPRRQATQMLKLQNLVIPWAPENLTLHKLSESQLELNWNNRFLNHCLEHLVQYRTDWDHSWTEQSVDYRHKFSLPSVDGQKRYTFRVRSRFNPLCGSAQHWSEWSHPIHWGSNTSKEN
The experiment in a line: SPR (Biacore T200), Fc-fused ligand captured on chip, dual VHH as analyte, 1:1 Langmuir fit. On the procedure:
(§1) All experiments were conducted in 10 mM Hepes, 150 mM NaCl, 0.05% (v/v) Polysorbate 20 (PS20) and 3 mM EDTA (HBS-EP+ buffer) on a Biacore T200 instrument equipped with Protein A or CAP biotin chips (Cytiva). For experiments on Protein A chips, Fc-fused ligands were flowed at 5 μl/min for variable time ranging from 18 to 300 seconds, reaching the capture loads listed in the tables below. Following ligand capture, injections of a 2-fold dilution series of analyte typically comprising at least five concentrations between 1 μM and 1 nM were performed in either high performance or single cycle kinetics mode. Surface regeneration was achieved by flowing 10 mM glycine-HCl, pH 1.5 (60 seconds, […]). Buffer-subtracted sensograms were processed with Biacore T200 Evaluation Software and globally fit with a 1:1 Langmuir binding model (bulk shift set to zero) to extract kinetics and affinity constants (kₐ, kd, KD). RMAX<100 RU indicates surface density compatible with kinetics analysis. Experiments on CAP chips were performed as described above with an additional capture step of Biotin CAPture reagent (10 seconds, 40 uL/min) performed prior to capture of biotinylated ligands. Calculated Rmax were generated using the equation Rmax=Load (RU) x valency of ligand x (Molecular weight of analyte/Molecular weight of ligand. Surface activity was defined as the ratio experimental/calculated Rmax. The results of these experiments are provided in below for sample information and experimental results.
(SPR reads the build-up and loss of mass on a sensor chip optically.)

Experiment [2] has as its target T2, cIL2Rg-Fc (lot#P210115SV5) (cynomolgus, UniProt A0A2K5VGJ6 23-262).
T2 construct: Named only by lot number; also called cynomolgus IL2Rg-Fc; not shown: Fc of the fusion protein
T2 sequence: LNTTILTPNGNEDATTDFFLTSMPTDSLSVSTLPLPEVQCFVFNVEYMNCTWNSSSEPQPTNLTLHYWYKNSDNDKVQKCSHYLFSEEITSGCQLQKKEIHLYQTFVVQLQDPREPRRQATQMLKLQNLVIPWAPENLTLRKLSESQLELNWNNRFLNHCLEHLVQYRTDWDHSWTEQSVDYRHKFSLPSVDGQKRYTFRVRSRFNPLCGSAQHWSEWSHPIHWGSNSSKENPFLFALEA
The description is as above. The procedure:
as §1

The target in experiment [3] is T1, hIL2Rg-Fc (SinoBiological cat#10555). The experiment in a line: SPR (Biacore T200); ratio experimental/calculated Rmax.
For experiment [4], the target named is T2, cIL2Rg-Fc (lot#P210115SV5). The experiment is described as above.

B1: DR471(DR241-DR231) (bispecific antibody)
chain: QVQLQESGGGSVQAGGSLRLSCAASGYSNCSYDMTWYRQAPGKEREFVSAIHSDGSTRYADSVKGRFFISQDNAKNTVYLQMNSLKPEDTAMYYCKTDPLHCRAHGGSWYSVRANYWGQGTQVTVSSGGGSQVQLQESGGGSVQAGGSLRLSCTASGFTFDDREMNWYRQAPGNECELVSTISSDGSTYYADSVKGRFTISQDNAKNTVYLQMDSVKPEDTAVYYCAADFMIAIQAPGAGCWGQGTQVTVSSASHHHHHH
notes: Anti-hIL10Ra/hIL2Rg dual VHH with ASH6 handle; also called G3
B1: the Kd in experiment [1] came to 16.6 nM; in experiment [2] it was 13.4 nM. Moreover, the koff in experiment [1] amounted to 0.0057 s⁻¹; in experiment [2] it was 0.0048 s⁻¹. The kon in experiment [1] came out at 340000 M⁻¹ s⁻¹; in experiment [2], 360000 M⁻¹ s⁻¹. Further, the figures for the “Surface Activity” value in experiment [3] and in experiment [4] were 5% and 1%, respectively.
